The text below walks through data of the supplement of paper PMC7877785.

This data set is described as follows: self-splicing fitness, log relative to wild type (ln ratio); higher = more splicing; Tetrahymena group I intron in knt gene, E. coli kanamycin selection, DiMSum; sequences stand for … in CUCUCU…GGAGGGAAAAGUUAUCAGGCAUGCACCUGGUAGCUAGUCUUUAAACCAAUAGAUUGCAUCGGUUUAAAAGGCAAGACCGUCAAAUUGCGGGAAAGGGGUCAACAGCCGUUCAGUACCAAGUCUCAGGGGAAACUUUGAGAUGGCCUUGCAAAGGGUAUGGUAAUAAGCUGACGGACAUGGUCCUAACCACGCAGCCAAGUCCUAAGUCAACAGAUCUUCUGUUGAUAUGGAUGCAGUUCACAGACUAAAUGUCGGUCGGGGAAGAUGUAUUCUUCUCAUAAGAUAUAGUCGGACCUCUCCUUAAUGGGAGCUAGCGGAUGAAGUGAUGCAACACUGGAGCCGCUGGGAACUAAUUUGUAUGCGAAAGUAUAUUGAUUAGUUUUGGAGUACUCGUGGUCG
An outline of the steps:
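DiMSum derived fitness as the error-weighted combination of fold changes across replicates, kanamycin versus no kanamycin, normalised to wild type. E. coli BL21(DE3) held the library, which randomised all eight P1ex-region intron nucleotides within the knt kanamycin-resistance gene on pET-22b(+). Six replicate transformations grew overnight at 37°C or 30°C on LB agar with or without 25 μg/mL kanamycin, also containing 100 μg/mL carbenicillin, 50 μM IPTG and 0.2% rhamnose, and pooled colonies were amplicon-sequenced on an Illumina HiSeq 2500.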

± gives the uncertainty stated by the source.

Turning to CGCAAGCAAUAUUACGCUGA, the “self-splicing fitness (ln)” value by setting is: (30 °C) -3.11 ± 0.26; (37 °C) -2.01 ± 0.22.
Regarding AAGAAGCAAUAUUACGGGUG, the “self-splicing fitness (ln)” value (30 °C) is -1.65 ± 0.072 and the “self-splicing fitness (ln)” value (37 °C) is -1.12 ± 0.086.
On the same counts, the results for CCGUAGCAAUAUUACGAAGU are -3.05 ± 0.21 and -1.46 ± 0.31.
For GAUUAGCAAUAUUACGCCCA, the “self-splicing fitness (ln)” value (30 °C) is -0.748 ± 0.11 and the “self-splicing fitness (ln)” value (37 °C) worked out at 0.123 ± 0.14.
On the same counts, the results for GGACAGCAAUAUUACGUUGC are -4.57 ± 0.24 and -2.83 ± 0.18.
As for GUUAAGCAAUAUUACGGGUU, the “self-splicing fitness (ln)” value was -3.44 ± 0.3 (30 °C) and -2.98 ± 0.23 (37 °C).
Turning to GGACAGCAAUAUUACGCCCG, the “self-splicing fitness (ln)” value is -0.653 ± 0.24 (30 °C) and -0.591 ± 0.28 (37 °C).
Turning to ACUCAGCAAUAUUACGAUGA, the “self-splicing fitness (ln)” value is, setting by setting: (30 °C) -1.82 ± 0.12; (37 °C) -0.791 ± 0.11.
On the same counts, the results for AUAAAGCAAUAUUACGUAGU are -1.9 ± 0.12 and -0.946 ± 0.17.
On the same counts, the results for ACCCAGCAAUAUUACGGUGA are -0.516 ± 0.043 and 0.305 ± 0.059.
On the same counts, the results for GCGCAGCAAUAUUACGGUAC are -1.22 ± 0.082 and 0.195 ± 0.095.
As for ACCCAGCAAUAUUACGCCUA, the “self-splicing fitness (ln)” value is -1.15 ± 0.073 (30 °C) and -0.478 ± 0.07 (37 °C).
On the same counts, the results for UAUGAGCAAUAUUACGAUUG are -1.94 ± 0.17 and -1.11 ± 0.2.
Turning to UUUGAGCAAUAUUACGUUAA, the “self-splicing fitness (ln)” value runs as follows: (30 °C) -2.96 ± 0.29; (37 °C) -1.57 ± 0.22.
On the same counts, the results for GGUGAGCAAUAUUACGUAUU are -1.96 ± 0.31 and -1.94 ± 0.47.
On the same counts, the results for UUCGAGCAAUAUUACGCAUG are -1.2 ± 0.23 and -2.21 ± 0.3.
On the same counts, the results for CACUAGCAAUAUUACGGUGA are -3.47 ± 0.21 and -2.22 ± 0.18.
Regarding CCGGAGCAAUAUUACGGAAG, the “self-splicing fitness (ln)” value is -2.73 ± 0.11 (30 °C) and -2.21 ± 0.14 (37 °C).
Consider CAAUAGCAAUAUUACGGUUU, for which the “self-splicing fitness (ln)” value by setting is: (30 °C) -2.88 ± 0.13; (37 °C) -1.88 ± 0.15.
As to UUCAAGCAAUAUUACGAGGC, the “self-splicing fitness (ln)” value (30 °C) is -1.97 ± 0.21 and the “self-splicing fitness (ln)” value (37 °C) is -1.76 ± 0.23.
Take CAUCAGCAAUAUUACGACAA: the “self-splicing fitness (ln)” value runs as follows: (30 °C) -2.31 ± 0.24; (37 °C) -1.41 ± 0.21.
On the same counts, the results for UAUUAGCAAUAUUACGACUC are -2.24 ± 0.21 and -1.08 ± 0.3.
As for CAUAAGCAAUAUUACGAAGA, the “self-splicing fitness (ln)” value runs as follows: (30 °C) -2.84 ± 0.37; (37 °C) -3.15 ± 0.33.
Take AAUGAGCAAUAUUACGCCGA: the “self-splicing fitness (ln)” value is -2.34 ± 0.3 (30 °C) and -1.75 ± 0.43 (37 °C).
As for UACUAGCAAUAUUACGGCAU, the “self-splicing fitness (ln)” value by setting is: (30 °C) -1.36 ± 0.095; (37 °C) -1.28 ± 0.099.
On the same counts, the results for UACGAGCAAUAUUACGGCCU are -3.35 ± 0.18 and -3.77 ± 0.46.
Consider UGCAAGCAAUAUUACGAUUA, for which the “self-splicing fitness (ln)” value reads like this: (30 °C) -0.19 ± 0.077; (37 °C) 0.163 ± 0.092.
UGGAAGCAAUAUUACGUUUC: the “self-splicing fitness (ln)” value is -2.56 ± 0.24 (30 °C) and -2.82 ± 0.38 (37 °C).
Consider GUGUAGCAAUAUUACGUGCA, for which the “self-splicing fitness (ln)” value runs as follows: (30 °C) -2.55 ± 0.21; (37 °C) -1.11 ± 0.26.
Turning to CCGAAGCAAUAUUACGGUAC, where the note is “37 °C”, the “self-splicing fitness (ln)” value is -1.85 ± 0.25.
Turning to CCACAGCAAUAUUACGGUCU, the “self-splicing fitness (ln)” value reads like this: (30 °C) -3.44 ± 0.11; (37 °C) -1.87 ± 0.12.
On the same counts, the results for CUCAAGCAAUAUUACGCUUA are -2.62 ± 0.27 and -3.26 ± 0.37.
On to CAGUAGCAAUAUUACGGACA, for which the “self-splicing fitness (ln)” value runs as follows: (30 °C) -2.94 ± 0.17; (37 °C) -2.23 ± 0.17.
On the same counts, the results for AGGAAGCAAUAUUACGUAAU are -0.858 ± 0.14 and -1.42 ± 0.18.
Turning to CCGAAGCAAUAUUACGCGAA, for the setting “37 °C”, the “self-splicing fitness (ln)” value is -2.24 ± 0.2.
For CUGUAGCAAUAUUACGUUAC, the “self-splicing fitness (ln)” value by setting is: (30 °C) -2.77 ± 0.34; (37 °C) -1.72 ± 0.32.
On the same counts, the results for GCUUAGCAAUAUUACGUGGU are -2.81 ± 0.15 and -1.93 ± 0.16.
For CUUGAGCAAUAUUACGAGUA, the “self-splicing fitness (ln)” value (30 °C) was -2.07 ± 0.37 and the “self-splicing fitness (ln)” value (37 °C) is -2.52 ± 0.32.
On the same counts, the results for GACUAGCAAUAUUACGGAUU are -0.975 ± 0.066 and -0.588 ± 0.092.
AUUUAGCAAUAUUACGAUUC: the “self-splicing fitness (ln)” value is, setting by setting: (30 °C) -1.73 ± 0.22; (37 °C) -0.798 ± 0.26.
On the same counts, the results for UUUUAGCAAUAUUACGCUCC are -1.4 ± 0.33 and -1.25 ± 0.45.
On the same counts, the results for UAUCAGCAAUAUUACGUUGA are -2.15 ± 0.18 and -1.95 ± 0.18.
With AAAGAGCAAUAUUACGGGUA, the “self-splicing fitness (ln)” value runs as follows: (30 °C) -2.81 ± 0.26; (37 °C) -1.88 ± 0.27.
Turning to CAUGAGCAAUAUUACGCAGU, the “self-splicing fitness (ln)” value runs as follows: (30 °C) -4.2 ± 0.39; (37 °C) -2.63 ± 0.23.
On the same counts, the results for AGCCAGCAAUAUUACGUCUU are -1.23 ± 0.072 and -0.744 ± 0.089.
On the same counts, the results for UCCCAGCAAUAUUACGUGGC are -3.54 ± 0.15 and -2.92 ± 0.23.
On the same counts, the results for UGUGAGCAAUAUUACGGGUU are -3.22 ± 0.31 and -1.59 ± 0.28.
In the case of CUCGAGCAAUAUUACGGGUA, the “self-splicing fitness (ln)” value (30 °C) was -4.2 ± 0.39 and the “self-splicing fitness (ln)” value (37 °C) was -1.81 ± 0.16.
As to GGCGAGCAAUAUUACGAACG, the “self-splicing fitness (ln)” value was -1.57 ± 0.078 (30 °C) and 0.152 ± 0.091 (37 °C).
On the same counts, the results for UACGAGCAAUAUUACGUAUA are -2.7 ± 0.2 and -0.839 ± 0.14.
For the sequence GAAUAGCAAUAUUACGCUUA, the “self-splicing fitness (ln)” value (30 °C) is -1.5 ± 0.17 and the “self-splicing fitness (ln)” value (37 °C) was -0.146 ± 0.17.
On the same counts, the results for CAAGAGCAAUAUUACGUAAU are -2.63 ± 0.23 and -2.7 ± 0.32.
Take AAGUAGCAAUAUUACGCCCU: the “self-splicing fitness (ln)” value is -0.145 ± 0.17 (30 °C) and -0.639 ± 0.19 (37 °C).
On the same counts, the results for AAGAAGCAAUAUUACGAUAU are -1.66 ± 0.11 and -0.399 ± 0.12.
With CGAAAGCAAUAUUACGCUUA, the “self-splicing fitness (ln)” value is -2.25 ± 0.16 (30 °C) and -1.24 ± 0.14 (37 °C).
On to GUAGAGCAAUAUUACGACAU, for which the “self-splicing fitness (ln)” value by setting is: (30 °C) 0.278 ± 0.014; (37 °C) 0.459 ± 0.033.
Turning to UAGUAGCAAUAUUACGCGUA, the “self-splicing fitness (ln)” value was -1.53 ± 0.25 (30 °C) and -1.94 ± 0.17 (37 °C).
Regarding ACUCAGCAAUAUUACGAUCC, for the setting “30 °C”, the “self-splicing fitness (ln)” value is -3.06 ± 0.37.
With AAAUAGCAAUAUUACGACUA, the “self-splicing fitness (ln)” value runs as follows: (30 °C) -0.367 ± 0.12; (37 °C) 0.06 ± 0.13.
On the same counts, the results for AAAGAGCAAUAUUACGAUGU are -2.08 ± 0.17 and -1.37 ± 0.23.
On the same counts, the results for ACUCAGCAAUAUUACGGUCA are -1.11 ± 0.11 and -1.05 ± 0.1.
On to GAUCAGCAAUAUUACGGAGU, for which the “self-splicing fitness (ln)” value reads like this: (30 °C) -1.16 ± 0.077; (37 °C) -0.717 ± 0.11.
With AGAAAGCAAUAUUACGAUCU, the “self-splicing fitness (ln)” value is -2.88 ± 0.11 (30 °C) and -0.99 ± 0.11 (37 °C).
On the same counts, the results for CACAAGCAAUAUUACGUAGU are -3.4 ± 0.12 and -1.81 ± 0.11.
On the same counts, the results for UUCCAGCAAUAUUACGCUGC are -3.79 ± 0.28 and -2.09 ± 0.4.
On the same counts, the results for UUAUAGCAAUAUUACGCAAU are -2.86 ± 0.3 and -0.556 ± 0.23.
Regarding CGUCAGCAAUAUUACGCAAG, the “self-splicing fitness (ln)” value by setting is: (30 °C) -0.161 ± 0.07; (37 °C) -0.63 ± 0.091.
On the same counts, the results for AGUGAGCAAUAUUACGCUGU are -3.12 ± 0.25 and -1.64 ± 0.18.
On to GAUAAGCAAUAUUACGCCGG, for which the “self-splicing fitness (ln)” value was -1.66 ± 0.2 (30 °C) and -1.06 ± 0.14 (37 °C).
On to GGUGAGCAAUAUUACGACUU, for which the “self-splicing fitness (ln)” value by setting is: (30 °C) -0.531 ± 0.11; (37 °C) 0.294 ± 0.12.
Take CGAAAGCAAUAUUACGAGCU: the “self-splicing fitness (ln)” value is -2.9 ± 0.12 (30 °C) and -1.59 ± 0.13 (37 °C).
On the same counts, the results for AGAUAGCAAUAUUACGCCUA are -1.21 ± 0.099 and -1.29 ± 0.13.
On the same counts, the results for UACCAGCAAUAUUACGUGUC are -2.04 ± 0.1 and -2.23 ± 0.15.
Turning to GCGAAGCAAUAUUACGCGCU, the “self-splicing fitness (ln)” value is -1.85 ± 0.24 (30 °C) and -1.48 ± 0.4 (37 °C).
On the same counts, the results for AGUCAGCAAUAUUACGAAUA are -0.962 ± 0.2 and -1.22 ± 0.17.
